Measurements from patent US6500417 (DSM N V, dated 2002).
Residue numbers refer to the chain shown, from its start.

B1: hIL-3 deletion mutant 939 (deletion 120-130) (ligand)
chain: APMTQTTPLKTSWVNCSNMIDEIITHLKQPPLPLLDFNNLNGEDQDILMENNLRRPNLEAFNRAVKSLQNASAIESILKNLLPCLPLATAAPTRHPIHIKDGDWNEFRRKLTFYLKTLEAIF
notes: not shown: heterologous N-terminal leader of the E. coli fusion (pGB/IL-336: 12 aa; pGB/IL-339: 15 aa)
B2: hIL-3 deletion mutant 932 (deletion 1-14) (ligand)
chain: NCSNMIDEIITHLKQPPLPLLDFNNLNGEDQDILMENNLRRPNLEAFNRAVKSLQNASAIESILKNLLPCLPLATAAPTRHPIHIKDGDWNEFRRKLTFYLKTLENAQAQQTTLSLAIF
notes: as for B1
B3: hIL-3 double deletion mutant 9329 (deletions 1-14/120-130) (ligand)
chain: NCSNMIDEIITHLKQPPLPLLDFNNLNGEDQDILMENNLRRPNLEAFNRAVKSLQNASAIESILKNLLPCLPLATAAPTRHPIHIKDGDWNEFRRKLTFYLKTLEAIF
notes: not shown: heterologous N-terminal leader of the E. coli fusion, rebuilt with oligonucleotides 1424/1425
B4: hIL-3 deletion mutant 934 (deletion 47-54) (ligand)
chain: APMTQTTPLKTSWVNCSNMIDEIITHLKQPPLPLLDFNNLNGEDQDRPNLEAFNRAVKSLQNASAIESILKNLLPCLPLATAAPTRHPIHIKDGDWNEFRRKLTFYLKTLENAQAQQTTLSLAIF
notes: as for B1
B5: hIL-3 deletion mutant 821 (deletion 94-102) (ligand)
chain: APMTQTTPLKTSWVNCSNMIDEIITHLKQPPLPLLDFNNLNGEDQDILMENNLRRPNLEAFNRAVKSLQNASAIESILKNLLPCLPLATAAPTDWNEFRRKLTFYLKTLENAQAQQTTLSLAIF
notes: as for B1
B6: hIL-3 deletion mutant 938 (deletion 103-111) (ligand)
chain: B5 chain with D94R, W95H, N96P, E97I, F98H, R99I, R100K, K101D, L102G
notes: as for B1
B7: hIL-3 substitution mutant 1481 (Glu43Asp44→Lys43Arg44) (ligand)
chain: APMTQTTPLKTSWVNCSNMIDEIITHLKQPPLPLLDFNNLNGKRQDILMENNLRRPNLEAFNRAVKSLQNASAIESILKNLLPCLPLATAAPTRHPIHIKDGDWNEFRRKLTFYLKTLENAQAQQTTLSLAIF
notes: also called 43ED→KR; not shown: heterologous N-terminal leader of the E. coli fusion (pGB/IL-336: 12 aa; pGB/IL-339: 15 aa)
B8: hIL-3 substitution mutant 1493 (Phe113Tyr114→Ala113Thr114) (ligand)
chain: B7 chain with K43E, R44D, F113A, Y114T
notes: also called 113FY → AT; not shown: heterologous N-terminal leader of the E. coli fusion (pGB/IL-336: 12 aa; pGB/IL-339: 15 aa)
B9: hIL-3 deletion mutant 820 (deletion 85-90) (ligand)
chain: APMTQTTPLKTSWVNCSNMIDEIITHLKQPPLPLLDFNNLNGEDQDILMENNLRRPNLEAFNRAVKSLQNASAIESILKNLLPCAPTRHPIHIKDGDWNEFRRKLTFYLKTLENAQAQQTTLSLAIF
notes: as for B1
B10: hIL-3 deletion mutant 937 (deletion 89-95) (ligand)
chain: APMTQTTPLKTSWVNCSNMIDEIITHLKQPPLPLLDFNNLNGEDQDILMENNLRRPNLEAFNRAVKSLQNASAIESILKNLLPCLPLAPIHIKDGDWNEFRRKLTFYLKTLENAQAQQTTLSLAIF
notes: as for B1
B11: hIL-3 deletion mutant 935 (deletion 60-70) (ligand)
chain: APMTQTTPLKTSWVNCSNMIDEIITHLKQPPLPLLDFNNLNGEDQDILMENNLRRPNLEASAIESILKNLLPCLPLATAAPTRHPIHIKDGDWNEFRRKLTFYLKTLENAQAQQTTLSLAIF
notes: as for B1
B12: hIL-3 deletion mutant 813 (deletion 66-80) (ligand)
chain: APMTQTTPLKTSWVNCSNMIDEIITHLKQPPLPLLDFNNLNGEDQDILMENNLRRPNLEAFNRAVLLPCLPLATAAPTRHPIHIKDGDWNEFRRKLTFYLKTLENAQAQQTTLSLAIF
notes: also called 4813; not shown: heterologous N-terminal leader of the E. coli fusion (pGB/IL-336: 12 aa; pGB/IL-339: 15 aa)
B13: hIL-3 deletion mutant 936 (deletion 76-83) (ligand)
chain: APMTQTTPLKTSWVNCSNMIDEIITHLKQPPLPLLDFNNLNGEDQDILMENNLRRPNLEAFNRAVKSLQNASAIECLPLATAAPTRHPIHIKDGDWNEFRRKLTFYLKTLENAQAQQTTLSLAIF
notes: as for B1
B14: hIL-3 substitution mutant 1480 (Asp36→Arg36) (ligand)
chain: B7 chain with D36R, K43E, R44D
notes: also called 36D→R; not shown: heterologous N-terminal leader of the E. coli fusion (pGB/IL-336: 12 aa; pGB/IL-339: 15 aa)
B15: hIL-3 substitution mutant 1491 (Glu106→Lys106) (ligand)
chain: B7 chain with K43E, R44D, E106K
notes: also called 106E → K; not shown: heterologous N-terminal leader of the E. coli fusion (pGB/IL-336: 12 aa; pGB/IL-339: 15 aa)
B16: hIL-3 substitution mutant 1487B (Glu75→Arg75) (ligand)
chain: B7 chain with K43E, R44D, E75R
notes: also called 75E → R; not shown: heterologous N-terminal leader of the E. coli fusion (pGB/IL-336: 12 aa; pGB/IL-339: 15 aa)
B17: hIL-3 substitution mutant 1482 (Asp46→Arg46) (ligand)
chain: B7 chain with K43E, R44D, D46R
notes: also called 46D→R; not shown: heterologous N-terminal leader of the E. coli fusion (pGB/IL-336: 12 aa; pGB/IL-339: 15 aa)
B18: hIL-3 substitution mutant 1487A (Glu75→Gly75) (ligand)
chain: B7 chain with K43E, R44D, E75G
notes: also called 75E → G; not shown: heterologous N-terminal leader of the E. coli fusion (pGB/IL-336: 12 aa; pGB/IL-339: 15 aa)
B19: hIL-3 substitution mutant 1485 (Glu59→Lys59) (ligand)
chain: B7 chain with K43E, R44D, E59K
notes: also called 59E → K; not shown: heterologous N-terminal leader of the E. coli fusion (pGB/IL-336: 12 aa; pGB/IL-339: 15 aa)
B20: hIL-3 substitution mutant 1490 (His98Lys100Asp101→Glu98Asp100Gln101) (ligand)
chain: B7 chain with K43E, R44D, H98E, K100D, D101Q
notes: also called 98HIKD → EIKQ; not shown: heterologous N-terminal leader of the E. coli fusion (pGB/IL-336: 12 aa; pGB/IL-339: 15 aa)
B21: hIL-3 C-terminal deletion mutant 1455 (lacking amino acids 130-133) (ligand)
chain: APMTQTTPLKTSWVNCSNMIDEIITHLKQPPLPLLDFNNLNGEDQDILMENNLRRPNLEAFNRAVKSLQNASAIESILKNLLPCLPLATAAPTRHPIHIKDGDWNEFRRKLTFYLKTLENAQAQQTTLS

What follows are molecules tested against T1, IL-3 receptor (human, UniProt P26951 19-378; P32927 17-897) (assay: competition with radiolabeled hIL-3 for binding to cells, relative to reference IL-3).
T1 construct: whole, on cells; also called ILK3 receptor
Procedure: (§1) An ILK3 receptor binding assay was performed with purified recombinant hIL-3 (see EPA 0390252) was radiolabeled with the Bolton-Hunter reagent (as described by Budel et al., Blood 74 (1989) 565–571). The specific activity was estimated at 80,000 cpm/ng of IL-3. As target, either donor leukocytes, patient AML cells, or MV4-11 (ATCC: CRL-9591) cells were used. Cells were washed in Hanks Balanced Salt solution and suspended in Alpha-MEM plus 1% BSA. Usually, 3–10×10⁶ cells were incubated with 200–300 pM of radiolabeled IL-3 and various concentrations of unlabeled mutant protein in a total volume of 200 µl for 1 hr at 37° C. Cell-bound labeled IL-3 was centrifuged for 10 min at 1000×g at 4° C. through a 0.5 ml cushion of bovine calf serum in an Eppendorf tube (Budel et al., 1989). The tubes were frozen in liquid nitrogen and the tips cut off for counting in a Packard gamma counter. Competition binding was determined relative to the reference preparation. […] Radiolabeled IL-3 binding to patient AML blasts is competed with unlabeled IL-3 protein (reference preparation). Due to the low number of receptors (less than 200) on the target cells, data for competition mostly varied by one order of magnitude.

T1 sequence (P26951 19-378, chain 1 of 2): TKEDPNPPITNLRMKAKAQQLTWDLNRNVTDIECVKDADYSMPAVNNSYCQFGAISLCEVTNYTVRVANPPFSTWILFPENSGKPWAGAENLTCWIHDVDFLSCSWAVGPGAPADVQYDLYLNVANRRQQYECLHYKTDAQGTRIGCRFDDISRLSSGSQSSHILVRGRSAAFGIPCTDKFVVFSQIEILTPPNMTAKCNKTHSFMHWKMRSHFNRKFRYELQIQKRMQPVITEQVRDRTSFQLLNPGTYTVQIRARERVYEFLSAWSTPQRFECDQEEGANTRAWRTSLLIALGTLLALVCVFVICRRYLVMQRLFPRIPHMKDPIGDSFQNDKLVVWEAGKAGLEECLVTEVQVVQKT
T1 sequence (P32927 17-897, chain 2 of 2): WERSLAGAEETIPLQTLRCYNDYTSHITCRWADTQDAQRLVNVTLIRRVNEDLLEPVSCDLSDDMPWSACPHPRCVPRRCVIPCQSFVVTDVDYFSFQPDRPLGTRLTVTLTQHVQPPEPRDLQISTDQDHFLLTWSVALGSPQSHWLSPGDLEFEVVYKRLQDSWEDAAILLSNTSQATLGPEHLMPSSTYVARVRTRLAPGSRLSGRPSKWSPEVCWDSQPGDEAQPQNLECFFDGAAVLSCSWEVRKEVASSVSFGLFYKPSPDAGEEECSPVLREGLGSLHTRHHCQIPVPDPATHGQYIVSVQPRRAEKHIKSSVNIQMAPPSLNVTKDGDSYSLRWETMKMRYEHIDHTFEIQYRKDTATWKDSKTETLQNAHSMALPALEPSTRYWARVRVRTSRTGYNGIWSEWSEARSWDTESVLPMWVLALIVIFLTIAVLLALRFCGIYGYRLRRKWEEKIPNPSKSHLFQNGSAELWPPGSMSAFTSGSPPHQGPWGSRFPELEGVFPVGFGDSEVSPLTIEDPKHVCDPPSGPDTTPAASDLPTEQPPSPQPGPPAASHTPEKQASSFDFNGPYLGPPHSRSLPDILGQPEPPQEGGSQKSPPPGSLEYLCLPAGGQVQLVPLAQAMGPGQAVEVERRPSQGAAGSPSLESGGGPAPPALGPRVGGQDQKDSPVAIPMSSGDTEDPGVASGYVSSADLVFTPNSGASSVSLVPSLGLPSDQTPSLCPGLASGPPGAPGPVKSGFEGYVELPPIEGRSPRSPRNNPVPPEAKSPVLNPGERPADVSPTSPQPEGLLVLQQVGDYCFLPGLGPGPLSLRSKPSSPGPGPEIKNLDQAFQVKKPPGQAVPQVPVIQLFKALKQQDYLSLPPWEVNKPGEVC

Molecule	relative antagonistic potential (relative receptor binding activity / relative biological activity)
B1	1.8
B2	2.8
B3	2

The molecules below were run against T1, IL-3 receptor (assay: competition with radiolabeled IL-3 for binding to cells; NC: No competition was observed for the particular mutein preparation).
Procedure: as §1

Molecule	binding result
B4	no binding
B5	no binding
B6	no binding
B7	no binding
B8	no binding
B9	no binding
B10	no binding
B11	no binding
B12	no binding
B13	no binding

What follows are molecules tested against T1, IL-3 receptor (assay: competition with radiolabeled hIL-3 for binding to cells, relative to reference IL-3; done once).
Procedure: as §1
[1]Deletion between amino acid numbers of mature human IL-3 is indicated. Substitutions of amino acids are indicated in single letter code. [2]Median specific biological activity is expressed relative to the reference IL-3 preparations. [3]Antagonistic potential is represented as relative receptor binding activity divided by relative biological activity. The range is presented between brackets. […] Muteins were diluted in medium and tested for biological activity. Receptor binding experiments were performed once. †Mutein protein concentration was too low for densitometric scanning and was estimated from gels and western blots. ¤Mutant proteins were expressed in Bacillus and lack a leader polypeptide sequence.

Molecule	relative antagonistic potential (relative receptor binding activity / relative biological activity)
B14	12
B15	6
B16	3
B17	0.6
B18	3
B19	3
B20	5

These molecules were tested against T1, IL-3 receptor (assay: cell-based or functional assay).

Molecule	REL. SPEC. BIOLOGICAL ACTIVITY (DNA synthesis of AML193 cells)
B1	2 relative to reference IL-3
B4	7.3e-05 relative to reference IL-3
B5	1.8e-05 relative to reference IL-3
B6	6.6e-05 relative to reference IL-3
B14	0.0031 relative to reference IL-3
B15	0.00032 relative to reference IL-3
B16	0.0086 relative to reference IL-3
B7	< 0.00015 relative to reference IL-3
B17	0.0075 relative to reference IL-3
B18	0.015 relative to reference IL-3
B8	< 1.2e-05 relative to reference IL-3
B19	0.011 relative to reference IL-3
B20	0.0022 relative to reference IL-3
B2	0.71 relative to reference IL-3
B3	0.4 relative to reference IL-3
B9	1.1e-05 relative to reference IL-3
B10	1e-05 relative to reference IL-3
B11	1.2e-05 relative to reference IL-3
B12	2.4e-05 relative to reference IL-3
B13	6.4e-06 relative to reference IL-3

These molecules were tested against T1, IL-3 receptor (assay: receptor binding assay on cells).

Molecule	binding activity retained [percent]
B1	100
B2	100
B3	100
B21	100

What follows are molecules tested against IL-3 receptor (human) (UniProt P26951) (assay: cell-based or functional assay).
Sequence of IL-3 receptor (human) (P26951 19-378, chain 1 of 2): as the sequence (P26951 19-378, chain 1 of 2) above
Sequence of IL-3 receptor (human) (P32927 17-897, chain 2 of 2, further chain): as the sequence (P32927 17-897, chain 2 of 2) above

Molecule	REL. SPEC. BIOLOGICAL ACTIVITY (DNA synthesis of AML193 cells) (relative to reference IL-3)
hIL-3 substitution mutant 1489 (Arg94→Pro94) (from UniProt P08700 20-152) (ligand)	0.0017
